The record followed here is patent publication US20170112900A1 (Pieris, published 2017).

For the assay, the target named is T1, human IL-4 receptor alpha chain (Interleukin-4 receptor subunit alpha, Uniprot #P24394, SEQ ID NO: 12) (human, UniProt P24394 26-232, limits assumed).
T1 construct: also called IL-4RA; human IL-4RA
T1 sequence: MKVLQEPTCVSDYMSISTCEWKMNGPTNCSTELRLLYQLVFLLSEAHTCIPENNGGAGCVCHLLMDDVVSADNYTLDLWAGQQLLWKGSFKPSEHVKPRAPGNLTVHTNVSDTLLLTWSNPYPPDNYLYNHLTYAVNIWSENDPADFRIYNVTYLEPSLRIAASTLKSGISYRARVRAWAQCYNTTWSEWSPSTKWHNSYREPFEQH
The experiment in a line: method not stated; target IL-4RA implied by the text.

B1: IL-4 double mutant IL-4 (R121D, Y124D) (ligand, UniProt P05112 25-153, looked up)
chain: HKCDITLQEIIKTLNSLTEQKTLCTELTVTDIFAASKNTTEKETFCRAATVLRQFYSHHEKDTRCLGATAQQFHRHKQLIRFLKRLDRNLWGLAGLNSCPVKEANQSTLENFLERLKTIMDEKDSKCSS
notes: they probably count on mature IL-4, not on the precursor entry; also called IL-4 mutant (R121D, Y124D); IL-4 mutant
Usually Kd stands for a measure of binding affinity in units of concentration. The low end stands for tighter binding, the high end for weaker binding. Usually koff stands for the rate constant with which the complex falls apart. A higher koff goes with fast dissociation. What is called kon is a measure of how fast the partners come together. Read a low kon as slower complex formation. In turn, B1 displayed a Kd of 154 pM, a koff of 0.0029 s⁻¹ and a kon of 1.9e+07 M⁻¹ s⁻¹.
